Measured values published in patent US20210277110A1 (Janssen / Centocor, published 2021).
Changes are numbered by the printed parent chain.

T1: Extracellular domain of cyno PD1 (cPD1-ECD) (Macaca fascicularis (cynomolgus))
T1 construct: Expressed with a hexahistidine tag or as Fc fusion; also called cynoPD1-ECD; cynoPD-1-ECD
T1 chain: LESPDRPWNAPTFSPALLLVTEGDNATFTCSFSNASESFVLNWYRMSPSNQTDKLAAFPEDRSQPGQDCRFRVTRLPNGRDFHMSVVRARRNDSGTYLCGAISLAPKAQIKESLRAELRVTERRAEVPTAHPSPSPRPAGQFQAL

B1: PD1B243 (antibody, human IgG4 S228P, kappa, V domains shown)
VH: EVQLVESGGGLVQPGGSLRLSCAASGFAFSRYDMSWVRQAPGKGLESVAYISGGGANTYYLDNVKGRFTISRDNAKNSLYLQMNSLRAEDTAVYYCASPYLSYFDVWGQGTLVTVSS
VL: EIVMTQSPATLSVSPGERATLSCRASQSLSDYLHWYQQKPGQAPRLLIKSASQSISGIPARFSGSGSGTEFTLTISSLQSEDFAVYYCQNGHSFPYTFGQGTKLEIKR
B2: PD1B196 (antibody, V domains shown)
VH: QVQLVQSGAEVKKPGSSVKVSCKASGGTFSSYAISWVRQAPGQGLEWMGGIIPIFDTANYAQKFQGRVTITADESTSTAYMELSSLRSEDTAVYYCARPGLAAAYDTGSLDYWGQGTLVTVSS
VL: EIVLTQSPATLSLSPGERATLSCRASQSVRSYLAWYQQKPGQAPRLLIYDASNRATGIPARFSGSGSGTDFTLTISSLEPEDFAVYYCQQRNYWPLTFGQGTKVEIK
notes: also called PD1H170/PD1L148
B3: PD1B200 (antibody, V domains shown)
VH: QVQLVQSGAEVKKPGSSVKVSCKASGGTFSDYVISWVRQAPGQGLEWMGGIIPIYGTANYAQKFQGRVTITADESTSTAYMELSSLRSEDTAVYYCARGTLDRTGHLDYWGQGTLVTVSS
VL: B2 VL with R30D, S31N, Y49H, N92S, Y93A
notes: also called PD1H164/PD1L168
B4: PD1B199 (antibody, V domains shown)
VH: B3 VH
VL: B2 VL with R30S, Y49H, N53T
notes: also called PD1H164/PD1L86
B5: PD1B201 (antibody, V domains shown)
VH: B3 VH
VL: B2 VL with R30S, S31N
notes: also called PD1H164/PD1L190
B6: PD1B244 (antibody, human IgG4 S228P, kappa, V domains shown)
VH: B2 VH
VL: EIVLTQSPATLSLSPGERATLSCRASQSVRSYLAWYQQKPGQAPRLLIYDASNRATGIPARFSGSGSGTDFTLTISSLEPEDFAVYYCQQRNYWPLTFGQGTKVEIKR
B7: PD1B175 (antibody, V domains shown)
VH: B3 VH with S30K, D31S, S35H, Y55F, T100Y, L101V, D102R, R103A, H106M
VL: B2 VL with R30S, N92S, Y93N
notes: Tested as IgG2sigma; also called PD1H163/PH9L3
B8: PD1B164 (antibody, human IgG2, kappa, V domains shown)
VH: B2 VH with S109N
VL: B6 VL with N53Y, N92D
notes: IgG2sigma/kappa; VH 42, VL 53; also called PD1H131/PD1L71
B9: PD1B162 (antibody, human IgG2, kappa, V domains shown)
VH: B2 VH with S109N
VL: B6 VL with R30D, N92E
notes: IgG2sigma/kappa; VH 42, VL 52; also called PD1H131/PD1L67
B10: TM3B193 (antibody, V domains shown)
VH: EVQLQQSGAELVKPGASVKLSCTASGFHIKDTYLHWVKQRPEQGLEWIGRIDPTNGNIKYDPKFQGKATITSDTSSNTAYLQLSSLTSEDTAVYYCARPYYGFFDYWGQGTTLTVSS
VL: DIVMTQSHKFMSTSVGDRVSITCKASQDVNTAVAWYQQKPGQSPKLLIYSATYRYTGVPDRFTGSGSGTDFTFTISSVQAEDLAVYYCQQHYSTPYTFGSGTKLEIK
notes: Mouse-derived variable domains; also called TM3H99/TM3L52
B11: TM3B113 (antibody, V domains shown)
VH: EVQLLESGGGLVQPGGSLRLSCAASGFTFSDYWMSWVRQAPGKGLEWVSVIKYSGGSKYYADSVKGRFTISRDNSKNTLYLQMNSLRAEDTAVYYCAKELEGVFDYWGQGTLVTVSS
VL: EIVLTQSPGTLSLSPGERATLSCRASQSVSNSTLAWYQQKPGQAPRLLIYTASSRATGIPDRFSGSGSGTDFTLTISRLEPEDFAVYYCQQSYTSPWTFGQGTKVEIK
notes: also called TM3H65/TM3L12
B12: TM3B196 (antibody, V domains shown)
VH: QVQLKESGPGLVAPSQSLSITCTISGFSLTSYGVHWVRQPPGKGLEWLVVIWSDGSTTYNSALKSRLSISKDNSKSQVFLKMNSLQTDDTAMYYCARQANYRYDSAMDYWGQGTSVTVSS
VL: DIQMTQSPASLAVSLGQRATISCKASQSVDYDGDSYMNWYQQKPGQPPKLLIYTAANLQSGIPARFSGSGSGTDFTLNIHPVEEEDAATYYCQQSNEDPFTFGSGTKLEIK
notes: Mouse-derived variable domains; also called TM3H102/TM3L64

The binders below were run against T2, Full length human PD1 (huPD1) on cells (human, UniProt Q15116 25-288) (assay: cell-based or functional assay).
T2 sequence (Q15116 25-288 limits assumed): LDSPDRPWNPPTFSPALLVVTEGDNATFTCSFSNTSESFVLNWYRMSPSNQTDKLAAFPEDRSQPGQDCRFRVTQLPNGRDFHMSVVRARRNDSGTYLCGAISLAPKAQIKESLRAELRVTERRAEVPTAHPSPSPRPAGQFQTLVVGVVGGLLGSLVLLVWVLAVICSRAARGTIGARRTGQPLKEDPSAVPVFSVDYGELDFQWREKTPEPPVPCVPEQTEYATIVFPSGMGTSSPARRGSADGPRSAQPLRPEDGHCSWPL

CMV EC50, nM (IFN-γ induction) [nM] | MLR EC50, nM (IFN-γ induction) [nM] | Binder
0.02 | 0.07 | B1
0.31 | 0.14 | B2
3.81 |  | B3
 | 0.63 | B4
2.6 |  | B5
0.03 | 0.08 | B6

Target: T1, Extracellular domain of cyno PD1 …
Assay: SPR ProteOn, cynoPD1-ECD; RANGE high replicate; RANGE high replicate
Protocol: (§1) Affinity measurements using Surface Plasmon Resonance (SPR) were performed using a ProteOn XPR36 system. A biosensor surface was prepared by coupling a mixture of anti-IgG Fc modified alginate polymer layer surface of a GLC chip using the manufacturer instructions for amine-coupling chemistry. […] The collected data were processed and fitted to a Langmuir 1:1 binding model. The result for each mAb was reported in the format of kₒₙ (On-rate), koff (Off-rate) and KD (equilibrium dissociation constant).
(§2) STDEV were calculated for 3 or more replicates generated for human and cyno proteins. If less than 3 replicates were calculated, RANGE was indicated. RANGE is defined as the low and high values for the replicates tested. For samples in the Table 10 or Table 11 without value indicated in RANGE or STDEV, only one experiment was performed.

koff [s⁻¹] | kon [M⁻¹ s⁻¹] | Binder
0.00673 | 230000 | B7
0.000291 |  | B8
0.000998 |  | B9

Each binder was assayed against T3, recombinant human TIM-3-Fc fusion protein (huTIM-3-Fc) (human, UniProt Q8TDQ0 22-200) (assay: competition ELISA on coated Fc-TIM-3, competitor galectin-9).
T3 construct: range 22-200; Bought from R&D Systems (NS0-derived); Deglycosylated for HDX-MS; also called recombinant human Fc-TIM-3 chimera; TIM-3 IgG1 Fc Chimera; not shown: IgG1 Fc of the bought chimera

Galectin 9 Inhibition, % inhibition (maximal) [%] | Binder
47.4 | B10
75.6 | B11
57 | B12

Target: T1, Extracellular domain of cyno PD1 …
Assay: SPR ProteOn, cynoPD1-ECD; RANGE low replicate

Kd [nM] | kon [M⁻¹ s⁻¹] | Binder
26 | 198000 | B7
1.06 | 267000 | B8
2.5 | 384000 | B9

Target: T1, Extracellular domain of cyno PD1 …
Assay: SPR ProteOn, captured mAb, cynoPD1-ECD analyte

Kd [nM] | koff [s⁻¹] | kon [M⁻¹ s⁻¹] | Binder
0.58 | 0.000176 | 303000 | B2
1.11 | 0.000422 | 380000 | B3
0.52 | 0.000177 | 340000 | B4
0.96 | 0.000293 | 305000 | B5

Each binder was assayed against T4, Extracellular domain of human PD1 (huPD1-ECD) (human, UniProt Q15116 25-169, biotinylated in the ligand inhibition assay (sites not given)) (assay: MSD ligand inhibition, competitor coated cynoPDL1-ECD).
T4 construct: Expressed with a hexahistidine tag or as Fc fusion; also called biotinylated PD-1
T4 sequence (Q15116 25-169 limits assumed): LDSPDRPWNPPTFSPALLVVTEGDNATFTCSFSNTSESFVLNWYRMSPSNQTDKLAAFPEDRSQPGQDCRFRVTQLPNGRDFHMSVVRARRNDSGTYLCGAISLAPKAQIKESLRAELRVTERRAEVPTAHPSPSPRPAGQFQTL

percentage ligand not blocked at 1 µg/ml [%] | percentage ligand not blocked at 10 µg/ml [%] | Binder
6 | 5 | B7
6 | 3 | B8
7 | 6 | B9

Target: T1, Extracellular domain of cyno PD1 …
Assay: SPR ProteOn, cynoPD1-ECD; RANGE high replicate
Protocol: as §1, §2

Kd [nM] | kon [M⁻¹ s⁻¹] | Binder
34 |  | B7
1.09 | 267000 | B8
2.6 | 389000 | B9

What follows are binders tested against T4, Extracellular domain of human PD1 … (assay: SPR ProteOn, captured mAb, huPD1-ECD analyte).

Kd [nM] | koff [s⁻¹] | kon [M⁻¹ s⁻¹] | Binder
0.41 | 0.000366 | 883000 | B2
1.17 | 0.00122 | 1.05e+06 | B3
0.6 | 0.000564 | 933000 | B4
1.12 | 0.000957 | 858000 | B5

Target: T1, Extracellular domain of cyno PD1 …
Assay: SPR ProteOn, cynoPD1-ECD; RANGE low replicate; RANGE low replicate
Protocol: as §1
STDEV were calculated for 3 or more replicates generated for human and cyno proteins. If less than 3 replicates were calculated, RANGE was indicated. RANGE is defined as the low and high values for the replicates tested.

koff [s⁻¹] | Binder
0.00606 | B7
0.000282 | B8
0.000959 | B9

Target: T1, Extracellular domain of cyno PD1 …
Assay: SPR ProteOn, captured mAb, cynoPD1-ECD analyte
Remark: another data set of the same source

Kd [nM] | koff [s⁻¹] | kon [M⁻¹ s⁻¹] | Binder
30 | 0.0064 | 214000 | B7
1.07 | 0.000287 | 267000 | B8
2.53 | 0.000979 | 387000 | B9

These binders were tested against T2, Full length human PD1 (huPD1) on cells (assay: flow cytometry, PHA-stimulated Jurkat cells).
Protocol: Jurkat cells were stimulated overnight with 20 ng/ml of PHA, harvested, washed, and checked for viability. The cells were then incubated at 6-10° C. for 45-60 minutes with various concentrations of test antibodies, washed and incubated at 6-10° C. for 45-60 minutes with FITC-labeled goat anti-human IgG. The cells were washed and fixed with BD Cytofix, refrigerated overnight and analyzed on a MACSQuant flow cytometer. The percentage of PD-1 positive cells at each antibody concentration was plotted vs log of the antibody concentration and EC₅₀ values were generated in Prism.

EC50 [µg/mL] | Binder
0.09 | B7
0.06 | B8
0.05 | B9

Target: T4, Extracellular domain of human PD1 …
Assay: SPR ProteOn, captured mAb, huPD1-ECD analyte
Remark: another data set of the same source
Protocol: as §1, §2

Kd [nM] | koff [s⁻¹] | kon [M⁻¹ s⁻¹] | Binder
23 | 0.00972 | 422000 | B7
2.92 | 0.00131 | 448000 | B8
5.95 | 0.00386 | 649000 | B9
